This passage reports Kd results from paper PMC9800720, “Size-advantage of monovalent nanobodies against the macrophage mannose receptor for deep tumor penetration and tumor-associated macrophage targeting” (Theranostics, 2023).

This test addresses T1, recombinant murine MMR protein (Macrophage Mannose Receptor, CD206) (Mus musculus, UniProt Q61830).
T1 construct: Macrophage Mannose Receptor (MMR, CD206), mouse, recombinant protein of R&D systems, catalogue 2535-MM; also called recombinant mouse MMR protein; MMR Ag; source: bought: R&D systems (2535-MM)
In words: SPR; Biacore T200; recombinant murine MMR immobilised on a CM5 chip by amine coupling at pH 5; Nbs injected in three-fold dilutions from 100 to 0.4 nM; 25 °C, HEPES buffered saline, 30 µL/min; association 180 s, dissociation 600 s; table gives two sets of rate constants (ka1/kd1, ka2/kd2); affinity of the bivalent Nb called apparent. The conditions noted are these: both partners purified. On the technique in general: Surface plasmon resonance follows binding to a sensor surface in real time, without labels.

T1 sequence (Q61830 20-1388): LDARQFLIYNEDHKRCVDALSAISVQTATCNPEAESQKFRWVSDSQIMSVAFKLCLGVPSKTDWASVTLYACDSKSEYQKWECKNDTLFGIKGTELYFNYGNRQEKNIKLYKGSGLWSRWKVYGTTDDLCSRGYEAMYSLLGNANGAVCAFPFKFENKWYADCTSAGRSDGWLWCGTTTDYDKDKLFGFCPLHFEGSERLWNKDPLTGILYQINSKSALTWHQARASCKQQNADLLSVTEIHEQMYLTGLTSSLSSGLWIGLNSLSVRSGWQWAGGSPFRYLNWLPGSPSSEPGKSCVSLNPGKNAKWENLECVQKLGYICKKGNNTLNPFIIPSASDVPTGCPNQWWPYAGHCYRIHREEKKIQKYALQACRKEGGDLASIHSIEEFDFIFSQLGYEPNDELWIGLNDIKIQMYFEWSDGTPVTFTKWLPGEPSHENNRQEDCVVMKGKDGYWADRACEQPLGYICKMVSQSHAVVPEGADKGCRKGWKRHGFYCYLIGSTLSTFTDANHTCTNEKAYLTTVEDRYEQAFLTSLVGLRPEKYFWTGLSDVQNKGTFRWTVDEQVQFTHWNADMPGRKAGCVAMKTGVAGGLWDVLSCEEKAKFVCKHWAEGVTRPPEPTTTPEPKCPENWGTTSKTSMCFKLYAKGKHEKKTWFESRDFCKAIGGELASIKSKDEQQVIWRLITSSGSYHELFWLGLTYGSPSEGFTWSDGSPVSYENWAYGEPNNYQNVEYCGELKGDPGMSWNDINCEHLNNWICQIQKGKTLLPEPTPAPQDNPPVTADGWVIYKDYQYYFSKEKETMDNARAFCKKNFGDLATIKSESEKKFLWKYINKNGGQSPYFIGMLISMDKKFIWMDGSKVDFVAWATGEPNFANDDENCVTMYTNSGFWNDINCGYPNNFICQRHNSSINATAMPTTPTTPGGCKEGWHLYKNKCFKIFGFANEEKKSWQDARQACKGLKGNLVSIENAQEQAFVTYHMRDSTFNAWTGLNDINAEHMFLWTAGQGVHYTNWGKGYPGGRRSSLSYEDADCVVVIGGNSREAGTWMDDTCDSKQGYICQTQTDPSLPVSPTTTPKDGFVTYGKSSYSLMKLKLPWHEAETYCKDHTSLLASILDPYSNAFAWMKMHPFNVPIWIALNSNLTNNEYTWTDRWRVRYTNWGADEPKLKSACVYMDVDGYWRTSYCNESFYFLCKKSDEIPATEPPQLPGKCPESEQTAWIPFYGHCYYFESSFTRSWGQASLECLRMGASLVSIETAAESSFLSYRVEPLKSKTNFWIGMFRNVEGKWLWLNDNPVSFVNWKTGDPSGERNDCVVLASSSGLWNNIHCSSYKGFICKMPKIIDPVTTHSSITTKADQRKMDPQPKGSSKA

B1: monovalent anti-Macrophage Mannose Receptor nanobody, (m)anti-MMR Nb (VHH)
VHH: QVQLQESGGGLVQPGGSLRLSCAASGNIFSINAIGWYRQAPGKQRELVATITLSGSTNYADSVKGRFSISRDNAKNTVYLQMNSLKPEDTAVYYCNANTYSDSDVYGYWGQGTQVTVSS
notes: anti-MMR nanobody MMRCl1; also called (m)anti-MMR Nbs; MMRCl1; source: E. coli WK6, periplasmic extract, purified (Ni-NTA, SEC); not shown: His6, C-terminal, kept
With B1, the Kd is 25 nM.
